Measured values: PMC13214397, “De novo biosynthesis of alpinetin enhanced by directed evolution of 5-O-methyltransferase” (Microbial Cell Factories, 2026)

B1: StrAOMT (Streptomyces avermitilis MA-4680 = NBRC 14893) (protein)
chain: MSESQQLWDDVDDYFTTLLAPEDEALTAALRDSDAAGLPHINVAPNQGKLLQLLAEIQGARRILEIGTLGGYSTIWLGRALPRDGRLISFEYDAKHAEVARRNLARAGLDGISEVRVGPALESLPKLADERPEPFDLVFIDADKVNNPHYVEWALKLTRPGSLIVVDNVVRGGGVTDAGSTDPSVRGTRSALELIAEHPKLSGTAVQTVGSKGYDGFALARVLP
notes: recombinant from pET21b in E. coli BL21(DE3), codon-optimized
B2: StrAOMT (Streptomyces avermitilis MA-4680 = NBRC 14893; I41L/K212R/R171W) (protein)
chain: MSESQQLWDDVDDYFTTLLAPEDEALTAALRDSDAAGLPHLNVAPNQGKLLQLLAEIQGARRILEIGTLGGYSTIWLGRALPRDGRLISFEYDAKHAEVARRNLARAGLDGISEVRVGPALESLPKLADERPEPFDLVFIDADKVNNPHYVEWALKLTRPGSLIVVDNVVWGGGVTDAGSTDPSVRGTRSALELIAEHPKLSGTAVQTVGSRGYDGFALARVLP
notes: as for B1

Experiments:
[1] = substrate: O=C1C[C@@H](c2ccccc2)Oc2cc(O)cc(O)c21; experiment: initial rates of alpinetin formation by HPLC, Michaelis-Menten fit; type: biochemical, Streptomyces avermitilis; conditions: 2 mM SAM (fixed), 2 mM Mg2+, 50 uM enzyme, Tris-HCl pH 7.5, 37 °C, apparent initial velocities
Text: initial rates of alpinetin formation by HPLC, Michaelis-Menten fit on StrAOMT | we performed steady-state kinetic assays for StrAOMT wild-type and StrAOMT I41L/R171W/K212R

[2] = substrate: O=C1C[C@@H](c2ccccc2)Oc2cc(O)cc(O)c21; experiment: as above; type: biochemical, Streptomyces avermitilis; conditions: 2 mM SAM (fixed), 2 mM Mg2+, 50 uM enzyme, Tris-HCl pH 7.5, 37 °C, apparent initial velocities; remark: listed apart in the source
Text: initial rates of alpinetin formation by HPLC, Michaelis-Menten fit on StrAOMT | KM of StrAOMT wild type is twice that of the StrAOMT triple mutant

Protein	Km [1]	kcat [1]	Km [2]	kcat [2]
B1	313.2 µM	0.0017 min⁻¹	–	–
B2	–	–	156.4 µM	0.0056 min⁻¹
